Measured values taken from patent publication US10087225B2, “Formulation of MK2 inhibitor peptides” (MOERAE MATRIX, INC., priority 2015, dated 2018).

Experiments:
Assay in all cases: Kinase Profiling Assay
Format in all cases: biochemical
Conditions in all cases: for % activity: 100 μM
[1] = molecular target: T1, PKCμ(h) (Homo sapiens, UniProt Q15139)
T1 sequence (Q15139 1-912): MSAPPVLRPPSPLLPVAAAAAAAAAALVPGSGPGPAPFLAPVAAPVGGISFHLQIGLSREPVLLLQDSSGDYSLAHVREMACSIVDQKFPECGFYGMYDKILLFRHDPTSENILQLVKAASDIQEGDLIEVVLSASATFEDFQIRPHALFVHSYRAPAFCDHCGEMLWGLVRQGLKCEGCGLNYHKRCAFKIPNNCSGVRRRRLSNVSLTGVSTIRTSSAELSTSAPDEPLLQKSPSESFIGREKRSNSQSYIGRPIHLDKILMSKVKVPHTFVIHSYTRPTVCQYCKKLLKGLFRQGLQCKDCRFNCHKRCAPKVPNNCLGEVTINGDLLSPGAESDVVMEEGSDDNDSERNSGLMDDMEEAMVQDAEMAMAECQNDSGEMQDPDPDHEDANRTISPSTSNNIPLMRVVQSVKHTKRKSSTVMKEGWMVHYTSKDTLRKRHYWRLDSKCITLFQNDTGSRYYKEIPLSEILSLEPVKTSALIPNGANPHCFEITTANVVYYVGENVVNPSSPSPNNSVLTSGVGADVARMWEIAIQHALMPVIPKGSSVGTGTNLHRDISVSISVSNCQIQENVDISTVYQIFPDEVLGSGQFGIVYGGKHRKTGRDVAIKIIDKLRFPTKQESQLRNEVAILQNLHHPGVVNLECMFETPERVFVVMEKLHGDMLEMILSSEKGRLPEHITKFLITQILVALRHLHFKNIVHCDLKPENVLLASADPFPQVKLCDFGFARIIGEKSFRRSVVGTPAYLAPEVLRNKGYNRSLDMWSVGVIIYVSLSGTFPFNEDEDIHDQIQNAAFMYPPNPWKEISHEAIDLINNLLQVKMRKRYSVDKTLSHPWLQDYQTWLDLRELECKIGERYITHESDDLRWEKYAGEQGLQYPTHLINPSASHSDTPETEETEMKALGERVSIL

[2] = molecular target: CK2(h) (Homo sapiens, UniProt P68400)
Chain of CK2(h) (P68400 whole entry): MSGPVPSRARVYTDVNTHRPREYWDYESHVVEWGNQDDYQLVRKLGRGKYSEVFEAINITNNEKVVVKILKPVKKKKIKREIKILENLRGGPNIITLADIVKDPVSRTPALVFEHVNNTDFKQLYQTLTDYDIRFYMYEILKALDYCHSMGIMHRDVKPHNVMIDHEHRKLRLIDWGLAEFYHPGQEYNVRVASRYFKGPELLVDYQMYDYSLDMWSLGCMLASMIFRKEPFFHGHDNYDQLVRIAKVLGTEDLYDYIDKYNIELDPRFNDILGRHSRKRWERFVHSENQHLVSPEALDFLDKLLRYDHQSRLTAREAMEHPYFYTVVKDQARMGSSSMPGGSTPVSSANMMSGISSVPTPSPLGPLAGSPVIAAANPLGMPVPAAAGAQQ
Chain of CK2(h) (P67870 whole entry partner): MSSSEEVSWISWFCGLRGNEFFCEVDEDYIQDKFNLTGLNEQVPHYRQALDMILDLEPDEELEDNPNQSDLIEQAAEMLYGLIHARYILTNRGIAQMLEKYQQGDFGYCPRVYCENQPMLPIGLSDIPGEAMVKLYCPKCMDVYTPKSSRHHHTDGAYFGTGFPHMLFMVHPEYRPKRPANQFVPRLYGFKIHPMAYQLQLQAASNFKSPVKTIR

[3] = molecular target: ALK(h) (Homo sapiens, UniProt Q9UM73)
[4] = molecular target: WNK2(h) (Homo sapiens, UniProt Q9Y3S1)
[5] = molecular target: IRR(h) (Homo sapiens, UniProt P14616)
[6] = molecular target: T2, DCAMKL2(h) (Homo sapiens, UniProt Q8N568)
T2 sequence (Q8N568 1-766): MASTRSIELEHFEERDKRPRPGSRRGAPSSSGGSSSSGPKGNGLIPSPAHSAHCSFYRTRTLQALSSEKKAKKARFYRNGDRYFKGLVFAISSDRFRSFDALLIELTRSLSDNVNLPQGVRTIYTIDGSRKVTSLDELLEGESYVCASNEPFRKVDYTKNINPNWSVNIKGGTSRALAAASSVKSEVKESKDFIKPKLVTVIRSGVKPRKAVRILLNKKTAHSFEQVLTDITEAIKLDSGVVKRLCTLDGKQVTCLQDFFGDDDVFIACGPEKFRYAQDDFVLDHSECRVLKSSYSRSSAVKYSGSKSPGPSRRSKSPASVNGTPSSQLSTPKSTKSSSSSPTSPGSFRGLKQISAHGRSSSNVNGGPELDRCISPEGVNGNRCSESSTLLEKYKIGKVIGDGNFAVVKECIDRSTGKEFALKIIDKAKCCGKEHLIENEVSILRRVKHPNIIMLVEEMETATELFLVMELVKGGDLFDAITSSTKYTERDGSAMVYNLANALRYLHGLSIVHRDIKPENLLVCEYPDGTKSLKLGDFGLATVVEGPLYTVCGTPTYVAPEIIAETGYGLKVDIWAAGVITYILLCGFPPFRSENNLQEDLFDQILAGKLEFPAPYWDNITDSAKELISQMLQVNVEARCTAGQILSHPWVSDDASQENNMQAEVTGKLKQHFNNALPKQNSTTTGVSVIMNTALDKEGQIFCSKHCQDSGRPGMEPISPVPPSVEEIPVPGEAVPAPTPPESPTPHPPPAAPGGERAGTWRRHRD

[7] = molecular target: LOK(h) (Homo sapiens, UniProt O94804)
Chain of LOK(h) (O94804 whole entry): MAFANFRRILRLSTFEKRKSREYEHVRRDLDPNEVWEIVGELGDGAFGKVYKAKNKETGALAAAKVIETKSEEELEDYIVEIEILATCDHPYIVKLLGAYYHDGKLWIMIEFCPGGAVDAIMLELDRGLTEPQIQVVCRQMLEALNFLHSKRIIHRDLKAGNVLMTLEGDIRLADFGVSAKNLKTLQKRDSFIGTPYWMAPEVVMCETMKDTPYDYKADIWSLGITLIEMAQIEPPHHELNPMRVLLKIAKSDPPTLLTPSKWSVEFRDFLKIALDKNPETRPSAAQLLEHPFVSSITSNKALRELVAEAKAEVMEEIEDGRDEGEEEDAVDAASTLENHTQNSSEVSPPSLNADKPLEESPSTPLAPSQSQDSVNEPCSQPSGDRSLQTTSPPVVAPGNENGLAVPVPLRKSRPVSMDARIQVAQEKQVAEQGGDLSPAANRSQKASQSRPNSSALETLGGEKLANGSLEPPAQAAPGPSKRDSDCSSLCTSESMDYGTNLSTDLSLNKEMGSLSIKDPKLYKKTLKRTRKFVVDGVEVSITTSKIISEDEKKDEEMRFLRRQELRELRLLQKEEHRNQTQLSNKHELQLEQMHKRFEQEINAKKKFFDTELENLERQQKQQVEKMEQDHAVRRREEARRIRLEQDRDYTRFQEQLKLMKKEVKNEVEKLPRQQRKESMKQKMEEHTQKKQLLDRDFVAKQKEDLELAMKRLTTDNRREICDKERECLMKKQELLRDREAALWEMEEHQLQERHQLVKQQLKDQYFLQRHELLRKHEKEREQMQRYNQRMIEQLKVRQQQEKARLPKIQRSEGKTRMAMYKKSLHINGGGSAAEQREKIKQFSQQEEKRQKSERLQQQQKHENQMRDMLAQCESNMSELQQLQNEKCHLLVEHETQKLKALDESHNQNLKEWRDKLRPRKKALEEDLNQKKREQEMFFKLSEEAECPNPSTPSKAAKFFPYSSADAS

[8] = molecular target: WNK3(h) (Homo sapiens, UniProt Q9BYP7)
Chain of WNK3(h) (Q9BYP7 whole entry): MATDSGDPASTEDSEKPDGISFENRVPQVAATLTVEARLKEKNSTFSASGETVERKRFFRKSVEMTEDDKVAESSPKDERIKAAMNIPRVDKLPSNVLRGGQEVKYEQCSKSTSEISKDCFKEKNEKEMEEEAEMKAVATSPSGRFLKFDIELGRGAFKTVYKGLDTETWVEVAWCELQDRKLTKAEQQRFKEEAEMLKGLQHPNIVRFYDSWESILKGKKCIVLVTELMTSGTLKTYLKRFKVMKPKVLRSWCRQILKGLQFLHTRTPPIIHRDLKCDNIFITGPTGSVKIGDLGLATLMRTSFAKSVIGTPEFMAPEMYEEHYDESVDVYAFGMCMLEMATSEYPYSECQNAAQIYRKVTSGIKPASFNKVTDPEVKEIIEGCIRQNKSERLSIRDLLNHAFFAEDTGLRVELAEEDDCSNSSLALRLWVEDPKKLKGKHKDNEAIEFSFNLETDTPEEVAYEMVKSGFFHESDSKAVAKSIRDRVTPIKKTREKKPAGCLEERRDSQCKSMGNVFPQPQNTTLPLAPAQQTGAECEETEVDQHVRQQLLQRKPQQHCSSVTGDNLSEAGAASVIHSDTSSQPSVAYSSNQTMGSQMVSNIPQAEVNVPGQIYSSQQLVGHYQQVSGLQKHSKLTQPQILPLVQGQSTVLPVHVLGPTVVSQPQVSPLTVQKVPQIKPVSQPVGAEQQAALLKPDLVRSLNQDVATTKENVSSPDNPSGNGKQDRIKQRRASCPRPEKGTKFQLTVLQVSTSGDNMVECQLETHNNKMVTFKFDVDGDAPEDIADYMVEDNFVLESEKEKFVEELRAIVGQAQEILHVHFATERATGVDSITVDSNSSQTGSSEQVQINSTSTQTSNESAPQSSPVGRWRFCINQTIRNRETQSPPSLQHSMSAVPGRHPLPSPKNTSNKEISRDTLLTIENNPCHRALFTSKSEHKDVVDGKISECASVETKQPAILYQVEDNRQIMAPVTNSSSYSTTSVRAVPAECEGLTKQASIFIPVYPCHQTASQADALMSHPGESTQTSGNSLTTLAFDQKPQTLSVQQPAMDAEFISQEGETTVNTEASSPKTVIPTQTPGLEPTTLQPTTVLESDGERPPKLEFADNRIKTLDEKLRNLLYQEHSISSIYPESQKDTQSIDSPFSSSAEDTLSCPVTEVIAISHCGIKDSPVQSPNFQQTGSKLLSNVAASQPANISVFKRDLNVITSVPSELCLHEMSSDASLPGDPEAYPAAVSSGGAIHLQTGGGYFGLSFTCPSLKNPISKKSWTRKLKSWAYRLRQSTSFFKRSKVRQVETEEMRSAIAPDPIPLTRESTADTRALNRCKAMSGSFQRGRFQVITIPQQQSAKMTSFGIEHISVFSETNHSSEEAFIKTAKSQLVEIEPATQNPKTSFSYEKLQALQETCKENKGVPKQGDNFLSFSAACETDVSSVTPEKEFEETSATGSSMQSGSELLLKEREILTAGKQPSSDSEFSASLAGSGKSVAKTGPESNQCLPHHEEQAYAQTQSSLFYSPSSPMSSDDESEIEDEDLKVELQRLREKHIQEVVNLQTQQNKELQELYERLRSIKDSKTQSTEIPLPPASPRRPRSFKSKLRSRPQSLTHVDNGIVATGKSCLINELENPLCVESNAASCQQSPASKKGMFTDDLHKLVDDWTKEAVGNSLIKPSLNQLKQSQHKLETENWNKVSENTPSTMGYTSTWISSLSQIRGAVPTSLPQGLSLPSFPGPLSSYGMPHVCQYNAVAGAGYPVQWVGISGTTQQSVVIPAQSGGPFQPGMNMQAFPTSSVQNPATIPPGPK

[9] = molecular target: GRK6(h) (Homo sapiens, UniProt P43250)
Chain of GRK6(h) (P43250 whole entry): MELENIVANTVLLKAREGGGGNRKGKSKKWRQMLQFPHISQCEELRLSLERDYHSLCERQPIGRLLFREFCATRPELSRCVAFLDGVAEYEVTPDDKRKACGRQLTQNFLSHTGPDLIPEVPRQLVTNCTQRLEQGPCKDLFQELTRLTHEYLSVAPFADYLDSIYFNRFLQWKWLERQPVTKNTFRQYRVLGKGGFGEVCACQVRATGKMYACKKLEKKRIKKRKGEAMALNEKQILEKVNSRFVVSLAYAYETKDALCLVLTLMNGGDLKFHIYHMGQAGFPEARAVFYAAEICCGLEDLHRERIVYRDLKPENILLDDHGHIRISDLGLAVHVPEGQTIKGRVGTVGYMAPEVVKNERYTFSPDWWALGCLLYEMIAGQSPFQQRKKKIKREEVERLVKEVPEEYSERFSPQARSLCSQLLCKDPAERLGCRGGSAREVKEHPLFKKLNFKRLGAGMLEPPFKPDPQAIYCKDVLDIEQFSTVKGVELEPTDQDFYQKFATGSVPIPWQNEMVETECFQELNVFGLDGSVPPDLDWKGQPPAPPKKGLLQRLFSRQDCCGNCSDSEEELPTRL

[10] = molecular target: FGFR1(h) (Homo sapiens, UniProt P11362)
Chain of FGFR1(h) (P11362 22-822): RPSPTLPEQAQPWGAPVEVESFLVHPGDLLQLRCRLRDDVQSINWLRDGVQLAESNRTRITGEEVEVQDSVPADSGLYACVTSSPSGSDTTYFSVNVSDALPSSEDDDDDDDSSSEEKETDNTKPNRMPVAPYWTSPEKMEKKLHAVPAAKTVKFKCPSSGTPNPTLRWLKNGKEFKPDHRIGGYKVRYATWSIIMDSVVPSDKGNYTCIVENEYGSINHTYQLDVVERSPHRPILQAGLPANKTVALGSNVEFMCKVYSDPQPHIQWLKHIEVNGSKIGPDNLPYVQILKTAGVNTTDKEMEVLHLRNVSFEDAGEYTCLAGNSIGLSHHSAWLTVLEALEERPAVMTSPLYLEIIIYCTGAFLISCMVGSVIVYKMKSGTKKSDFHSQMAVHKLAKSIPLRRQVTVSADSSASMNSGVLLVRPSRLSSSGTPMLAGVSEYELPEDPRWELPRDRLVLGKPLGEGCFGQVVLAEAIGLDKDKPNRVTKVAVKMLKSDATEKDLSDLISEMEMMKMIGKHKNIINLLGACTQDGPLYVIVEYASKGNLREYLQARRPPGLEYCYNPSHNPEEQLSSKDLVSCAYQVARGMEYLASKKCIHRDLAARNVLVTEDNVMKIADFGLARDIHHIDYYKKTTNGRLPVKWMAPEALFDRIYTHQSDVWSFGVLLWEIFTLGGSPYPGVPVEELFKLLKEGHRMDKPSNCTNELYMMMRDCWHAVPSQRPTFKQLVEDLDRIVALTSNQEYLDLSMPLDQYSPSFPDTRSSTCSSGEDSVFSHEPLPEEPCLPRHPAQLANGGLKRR

[11] = molecular target: MLK1(h) (Homo sapiens, UniProt P80192)

Row | Substance | % activity [1] [%] | % activity [2] [%] | % activity [3] [%] | % activity [4] [%] | % activity [5] [%] | % activity [6] [%] | % activity [7] [%] | % activity [8] [%] | % activity [9] [%] | % activity [10] [%] | % activity [11] [%] | also measured
1 | H-YARAAARQARAKALARQLGVAA-OH [MMI-0100] |  |  |  |  |  |  |  |  |  |  |  | activity at 100 µM [1]: 79%; activity at 100 µM [2]: 90%; activity at 100 µM [3]: 118%; activity at 100 µM [4]: 95%; activity at 100 µM [5]: 85%; activity at 100 µM [6]: 146%; activity at 100 µM [7]: 37%; activity at 100 µM [8]: 100%; activity at 100 µM [9]: 131%; activity at 100 µM [10]: 120%; activity at 100 µM [11]: 77%
2 | YARAAARQARAKALNRQLGVA (Mammalian) [MMI-0200] | 73 | 83 | 95 | 94 | 69 | 131 | 67 | 97 | 132 | 97 | 84 | 
3 | HRRIKAWLKKIKALARQLGVAA (Mammalian) [MMI-0500] | 10 | 93 | 12 | 8 | 10 | 56 | 7 | 9 | 174 | 18 | 43 | 
